Reference: patent US20150329595A1 (NORTH CAROLINA STATE UNIVERSITY, published 2015)

B1: AD:TAL11-352 prey (activation domain fused to full-length TGMV AL1) (other, Tomato golden mosaic virus, UniProt P03567 1-352, looked up, not shown: large carriers)
chain: MPSHPKRFQINAKNYFLTYPQCSLSKEESLSQLQALNTPINKKFIKICRELHEDGQPHLHVLIQFEGKYCCQNQRFFDLVSPTRSAHFHPNIQRAKSSSDVKTYIDKDGDTLVWGEFQVDGRSARGGCQTSNDAAAEALNASSKEEALQIIREKIPEKYLFQFHNLNSNLDRIFDKTPEPWLPPFHVSSFTNVPDEMRQWAENYFGKSSAARPERPISIIIEGDSRTGKTMWARSLGPHNYLSGHLDLNSRVYSNKVEYNVIDDVTPQYLKLKHWKELIGAQRDWQTNCKYGKPVQIKGGIPSIVLCNPGEGASYKVFLDKEENTPLKNWTFHNAKFVFLNSPLYQSSTQSS
notes: positive prey control; also called pNSB970
B2: TAL11-130 bait (LexA DBD fused to the first 130 amino acids of TGMV AL1) (other, E. coli;Tomato golden mosaic virus, UniProt P0A7C2 1-202, looked up)
chain: MKALTARQQEVFDLIRDHISQTGMPPTRAEIAQRLGFRSPNAAEEHLKALARKGVIEIVSGASRGIRLLQEEEEGLPLVGRVAAGEPLLAQQHIEGHYQVDPSLFKPNADFLLRVSGMSMKDIGIMDGDLLAVHKTQDVRNGQVVVARIDDEVTVKRLKKQGNKVELLPENSEFKPIVVDLRQQSFTIEGLAVGVIRNGDWLMPSHPKRFQINAKNYFLTYPQCSLSKEESLSQLQALNTPINKKFIKICRELHEDGQPHLHVLIQFEGKYCCQNQRFFDLVSPTRSAHFHPNIQRAKSSSDVKTYIDKDGDTLVWGEFQVDGRSARGGCQT
notes: yeast two-hybrid bait; also called NT; Rep1-130

Key:
[1] = molecular target: T1, GUS bait (LexA DBD:beta-glucuronidase fusion) (E. coli, UniProt P0A7C2 1-202; P05804 1-603); assay: yeast two-hybrid growth
T1 construct: negative control bait; also called pNSB1120

[2] = molecular target: B1; assay: yeast two-hybrid growth

B1: no binding [1].

B2: no binding [2].
